T1: GST-CDC6 (human, UniProt Q99741 1-560)
T1 sequence: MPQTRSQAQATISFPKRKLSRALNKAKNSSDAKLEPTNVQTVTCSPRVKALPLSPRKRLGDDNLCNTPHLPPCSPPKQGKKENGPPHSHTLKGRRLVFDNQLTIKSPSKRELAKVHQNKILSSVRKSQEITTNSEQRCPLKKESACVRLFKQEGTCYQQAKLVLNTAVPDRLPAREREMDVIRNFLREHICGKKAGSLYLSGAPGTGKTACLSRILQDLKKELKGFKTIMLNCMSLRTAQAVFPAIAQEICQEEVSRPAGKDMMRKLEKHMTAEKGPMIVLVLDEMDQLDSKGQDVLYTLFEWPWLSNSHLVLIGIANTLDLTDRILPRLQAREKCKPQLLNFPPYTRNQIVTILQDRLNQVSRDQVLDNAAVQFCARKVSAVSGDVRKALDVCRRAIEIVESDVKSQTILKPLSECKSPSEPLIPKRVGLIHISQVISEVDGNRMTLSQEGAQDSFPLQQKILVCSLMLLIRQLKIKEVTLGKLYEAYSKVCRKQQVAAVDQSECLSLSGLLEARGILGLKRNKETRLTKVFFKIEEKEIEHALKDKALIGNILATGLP

T2: MBP-ORC1 (human, UniProt Q13415 1-861)
T2 sequence: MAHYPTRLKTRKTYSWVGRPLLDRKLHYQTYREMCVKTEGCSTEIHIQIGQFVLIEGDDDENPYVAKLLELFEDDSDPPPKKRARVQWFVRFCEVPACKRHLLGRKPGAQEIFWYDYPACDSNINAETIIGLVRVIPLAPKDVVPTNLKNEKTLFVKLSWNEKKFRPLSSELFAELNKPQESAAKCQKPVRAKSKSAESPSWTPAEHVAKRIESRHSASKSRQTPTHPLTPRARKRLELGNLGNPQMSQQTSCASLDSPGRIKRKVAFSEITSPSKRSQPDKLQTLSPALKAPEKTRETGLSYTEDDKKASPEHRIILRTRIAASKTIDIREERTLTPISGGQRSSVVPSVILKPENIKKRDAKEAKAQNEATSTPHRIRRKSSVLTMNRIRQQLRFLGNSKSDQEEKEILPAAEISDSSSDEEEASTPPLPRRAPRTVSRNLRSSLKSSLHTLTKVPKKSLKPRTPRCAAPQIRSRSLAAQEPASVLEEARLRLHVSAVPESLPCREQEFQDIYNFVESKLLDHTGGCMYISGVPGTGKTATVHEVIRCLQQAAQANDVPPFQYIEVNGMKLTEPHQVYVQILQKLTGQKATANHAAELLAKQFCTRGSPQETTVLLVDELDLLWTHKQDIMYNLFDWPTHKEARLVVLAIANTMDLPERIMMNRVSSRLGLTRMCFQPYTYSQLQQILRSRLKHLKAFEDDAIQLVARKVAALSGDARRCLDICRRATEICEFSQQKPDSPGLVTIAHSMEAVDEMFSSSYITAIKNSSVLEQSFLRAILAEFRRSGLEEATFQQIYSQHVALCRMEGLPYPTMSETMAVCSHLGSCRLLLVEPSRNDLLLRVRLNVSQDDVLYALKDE

T3: ORC1 230-400-His (human, UniProt Q13415 230-400)
T3 sequence: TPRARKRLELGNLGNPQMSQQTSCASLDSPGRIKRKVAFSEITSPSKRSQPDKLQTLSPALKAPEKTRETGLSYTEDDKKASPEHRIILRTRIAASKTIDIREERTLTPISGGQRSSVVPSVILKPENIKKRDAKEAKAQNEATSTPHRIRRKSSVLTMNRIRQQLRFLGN

B1: MBP-ORC1 1-240 (domain or fragment)
chain: MAHYPTRLKTRKTYSWVGRPLLDRKLHYQTYREMCVKTEGCSTEIHIQIGQFVLIEGDDDENPYVAKLLELFEDDSDPPPKKRARVQWFVRFCEVPACKRHLLGRKPGAQEIFWYDYPACDSNINAETIIGLVRVIPLAPKDVVPTNLKNEKTLFVKLSWNEKKFRPLSSELFAELNKPQESAAKCQKPVRAKSKSAESPSWTPAEHVAKRIESRHSASKSRQTPTHPLTPRARKRLELG
B2: MBP-ORC1 180-400 (domain or fragment)
chain: QESAAKCQKPVRAKSKSAESPSWTPAEHVAKRIESRHSASKSRQTPTHPLTPRARKRLELGNLGNPQMSQQTSCASLDSPGRIKRKVAFSEITSPSKRSQPDKLQTLSPALKAPEKTRETGLSYTEDDKKASPEHRIILRTRIAASKTIDIREERTLTPISGGQRSSVVPSVILKPENIKKRDAKEAKAQNEATSTPHRIRRKSSVLTMNRIRQQLRFLGN
B3: MBP-ORC1-180-240 (domain or fragment)
chain: QESAAKCQKPVRAKSKSAESPSWTPAEHVAKRIESRHSASKSRQTPTHPLTPRARKRLELG
B4: MBP-ORC1-230-400 A-A (domain or fragment)
chain: T3 sequence with K6A, L8A
B5: MBP-ORC1-230-400 (domain or fragment)
chain: T3 sequence
B6: MBP-ORC1 fragment (165-250) (domain or fragment)
chain: FRPLSSELFAELNKPQESAAKCQKPVRAKSKSAESPSWTPAEHVAKRIESRHSASKSRQTPTHPLTPRARKRLELGNLGNPQMSQQ
B7: GST-CDC6 1-110 (domain or fragment)
chain: MPQTRSQAQATISFPKRKLSRALNKAKNSSDAKLEPTNVQTVTCSPRVKALPLSPRKRLGDDNLCNTPHLPPCSPPKQGKKENGPPHSHTLKGRRLVFDNQLTIKSPSKR
B8: GST-CDC6 with internal deletion of 11-20 (natural protein)
chain: MPQTRSQAQARALNKAKNSSDAKLEPTNVQTVTCSPRVKALPLSPRKRLGDDNLCNTPHLPPCSPPKQGKKENGPPHSHTLKGRRLVFDNQLTIKSPSKRELAKVHQNKILSSVRKSQEITTNSEQRCPLKKESACVRLFKQEGTCYQQAKLVLNTAVPDRLPAREREMDVIRNFLREHICGKKAGSLYLSGAPGTGKTACLSRILQDLKKELKGFKTIMLNCMSLRTAQAVFPAIAQEICQEEVSRPAGKDMMRKLEKHMTAEKGPMIVLVLDEMDQLDSKGQDVLYTLFEWPWLSNSHLVLIGIANTLDLTDRILPRLQAREKCKPQLLNFPPYTRNQIVTILQDRLNQVSRDQVLDNAAVQFCARKVSAVSGDVRKALDVCRRAIEIVESDVKSQTILKPLSECKSPSEPLIPKRVGLIHISQVISEVDGNRMTLSQEGAQDSFPLQQKILVCSLMLLIRQLKIKEVTLGKLYEAYSKVCRKQQVAAVDQSECLSLSGLLEARGILGLKRNKETRLTKVFFKIEEKEIEHALKDKALIGNILATGLP
B9: GST-CDC6 with internal deletion of 21-30 (natural protein)
chain: B8 chain with R11T, A12I, L13S, N14F, K15P, A16K, K17R, N18K, S19L
B10: GST-CDC6 with internal deletion of 51-70 (natural protein)
chain: MPQTRSQAQATISFPKRKLSRALNKAKNSSDAKLEPTNVQTVTCSPRVKAPPCSPPKQGKKENGPPHSHTLKGRRLVFDNQLTIKSPSKRELAKVHQNKILSSVRKSQEITTNSEQRCPLKKESACVRLFKQEGTCYQQAKLVLNTAVPDRLPAREREMDVIRNFLREHICGKKAGSLYLSGAPGTGKTACLSRILQDLKKELKGFKTIMLNCMSLRTAQAVFPAIAQEICQEEVSRPAGKDMMRKLEKHMTAEKGPMIVLVLDEMDQLDSKGQDVLYTLFEWPWLSNSHLVLIGIANTLDLTDRILPRLQAREKCKPQLLNFPPYTRNQIVTILQDRLNQVSRDQVLDNAAVQFCARKVSAVSGDVRKALDVCRRAIEIVESDVKSQTILKPLSECKSPSEPLIPKRVGLIHISQVISEVDGNRMTLSQEGAQDSFPLQQKILVCSLMLLIRQLKIKEVTLGKLYEAYSKVCRKQQVAAVDQSECLSLSGLLEARGILGLKRNKETRLTKVFFKIEEKEIEHALKDKALIGNILATGLP
B11: GST-CDC6 with internal deletion of 71-90 (natural protein)
chain: MPQTRSQAQATISFPKRKLSRALNKAKNSSDAKLEPTNVQTVTCSPRVKALPLSPRKRLGDDNLCNTPHLLKGRRLVFDNQLTIKSPSKRELAKVHQNKILSSVRKSQEITTNSEQRCPLKKESACVRLFKQEGTCYQQAKLVLNTAVPDRLPAREREMDVIRNFLREHICGKKAGSLYLSGAPGTGKTACLSRILQDLKKELKGFKTIMLNCMSLRTAQAVFPAIAQEICQEEVSRPAGKDMMRKLEKHMTAEKGPMIVLVLDEMDQLDSKGQDVLYTLFEWPWLSNSHLVLIGIANTLDLTDRILPRLQAREKCKPQLLNFPPYTRNQIVTILQDRLNQVSRDQVLDNAAVQFCARKVSAVSGDVRKALDVCRRAIEIVESDVKSQTILKPLSECKSPSEPLIPKRVGLIHISQVISEVDGNRMTLSQEGAQDSFPLQQKILVCSLMLLIRQLKIKEVTLGKLYEAYSKVCRKQQVAAVDQSECLSLSGLLEARGILGLKRNKETRLTKVFFKIEEKEIEHALKDKALIGNILATGLP
B12: MBP-ORC1-100-250 (domain or fragment)
chain: RHLLGRKPGAQEIFWYDYPACDSNINAETIIGLVRVIPLAPKDVVPTNLKNEKTLFVKLSWNEKKFRPLSSELFAELNKPQESAAKCQKPVRAKSKSAESPSWTPAEHVAKRIESRHSASKSRQTPTHPLTPRARKRLELGNLGNPQMSQQ
B13: MBP-ORC1-350-400 (domain or fragment)
chain: SVILKPENIKKRDAKEAKAQNEATSTPHRIRRKSSVLTMNRIRQQLRFLGN
B14: ORC1-180-240-His (domain or fragment)
chain: B3 chain

Changes are numbered by the printed parent chain.

What all share (experiment): pull-down
One assay addresses T1, GST-CDC6.
In another assay the target is T2, MBP-ORC1.
Another assay deals with T3, ORC1 230-400-His.
The target in the assay “ORC1-180-240-His” is B14.
The target in the assay “MBP-ORC1-230-400” is B5.

For the molecule B1, the binding result with GST-CDC6 is recorded as “binds”.

On to B2, for which the binding result with GST-CDC6 is recorded as “binds”.

With B3, the binding result in the assay with GST-CDC6 was “binds”.

Regarding B4, the binding result with GST-CDC6 was “binds”.

B5: the binding result in the assay with GST-CDC6 was “binds”.

Take B6: in the assay with GST-CDC6, the binding result is recorded as “binds”.

Turning to B7, in the assay with MBP-ORC1, the binding result was “binds”.

Consider B8, for which, in the assay with MBP-ORC1, the binding result is “binds”.

B9: the binding result in the assay with MBP-ORC1 was “binds”.

For B10, the binding result with MBP-ORC1 is recorded as “binds”.

Regarding B11, the binding result in the assay with MBP-ORC1 is “binds”.

Regarding B12, the binding result in the assay with ORC1 230-400-His is given as “binds”.

B13: the binding result with ORC1-180-240-His and in the assay with GST-CDC6 was “binds” in each case.

Consider B14, for which, in the assay with MBP-ORC1-230-400, the binding result was “binds”.

Values taken from paper doi:10.1101/681668 (bioRxiv, 2019).
